# Measured values taken from patent US20040018971A1 (published 2004).
# Where no end group is shown, it is not given here. [ ]: non-standard residue; d: D form. Abu = CC[C@H](N)C(=O)O
# B1: Her2/neu.218.B3B7K9 (peptide)
# peptide: TVBAGGBAK
# modifications: B at positions 3 and 7 = alpha-amino butyric acid (in place of cysteine)
# notes: synthetic analog peptide; also called TVBAGGBAK
# B2: HER2/neu peptide, position 883, 9 amino acids (peptide)
# peptide: KVPIKWMAL
# notes: Synthetic peptide; also called KVPIKWMAL
# B3: HER2/neu peptide, position 296, 8 amino acids (peptide)
# peptide: VTACPYNY
# notes: Synthetic peptide; also called Her2/neu.296
# B4: HER2/neu peptide, position 293, 9 amino acids (peptide)
# peptide: ASCVTACPY
# notes: Synthetic peptide; also called Her2/neu.293
# B5: HER2/neu peptide, position 90, 10 amino acids (peptide)
# peptide: QVRQVPLQRL
# notes: Synthetic peptide; also called HER2/neu 90-99
# B6: HER2/neu peptide, position 711, 10 amino acids (peptide)
# peptide: QMRILKETEL
# notes: Synthetic peptide; also called HER2/neu 711-720
# B7: HER2/neu peptide, position 54, 9 amino acids (peptide)
# peptide: QVVQGNLEL
# notes: Synthetic peptide; also called HER2/neu 54-62
# B8: HER2/neu peptide, position 24, 10 amino acids (peptide)
# peptide: QVCTGTDMKL
# notes: Synthetic peptide; also called HER2/neu 24-33
# Target: HLA-A*1101 (human)
# Test: inhibition of 125I probe peptide binding to purified HLA
row,Binder,IC50
1,B1,29 nM
2,TVCAGGCAR (synthetic peptide) [Her2/neu.218],261 nM
3,IVKGGVLIQR (synthetic analog peptide) [Her2/neu.148.V2],7500 nM
4,IVWLGLRSLK (synthetic analog peptide) [Her2/neu.450.V2K10],128 nM

# Target: HLA-A*6801 (human)
# Test: as above
row,Binder,IC50
1,B1,7.3 nM
2,TVCAGGCAR (synthetic peptide) [Her2/neu.218],83 nM
3,IVKGGVLIQR (synthetic analog peptide) [Her2/neu.148.V2],29 nM
4,IVWLGLRSLK (synthetic analog peptide) [Her2/neu.450.V2K10],12 nM

# Target: HLA-A*3101 (human)
# Test: as above
row,Binder,IC50
1,IVKGGVLIQR (synthetic analog peptide) [Her2/neu.148.V2],72 nM

# Target: HLA-A*0301 (human)
# Test: as above
row,Binder,IC50
1,B1,24 nM
2,IVKGGVLIQR (synthetic analog peptide) [Her2/neu.148.V2],275 nM
3,IVWLGLRSLK (synthetic analog peptide) [Her2/neu.450.V2K10],3.9 nM

# Target: HLA-B*5101 (human)
# Test: competition with 125I probe peptide, purified HLA
row,Binder,IC50
1,CPSGVKPDLSI (analog peptide) [Her2/neu.600.I11],138 nM

# Target: HLA-B*5301 (human)
# Test: competition with 125I probe peptide, purified HLA
row,Binder,IC50
1,CPSGVKPDLSI (analog peptide) [Her2/neu.600.I11],344 nM

# Target: HLA-B*0702 (human)
# Test: competition with 125I probe peptide, purified HLA
row,Binder,IC50
1,CPSGVKPDLSI (analog peptide) [Her2/neu.600.I11],290 nM

# Target: T1, HLA-A*0201 (human)
# T1 construct: Purified HLA class I molecule (MHC, no peptide specified); also called HLA-A2.1
# Test: competition with 125I-labelled probe peptide for purified HLA-A*0201, gel filtration
row,Binder,relative binding ratio
1,"ILKETELRKV (Synthetic peptide) [HER2/neu peptide, position 714, 10 amino acids]",0.0001 ratio (IC50 of standard peptide / IC50 of test peptide)
2,"ILLVVVLGV (Synthetic peptide) [HER2/neu peptide, position 661, 9 amino acids]",0.002 ratio (IC50 of standard peptide / IC50 of test peptide)
3,"LIAHNQVRQV (Synthetic peptide) [HER2/neu peptide, position 85, 10 amino acids]",0.0001 ratio (IC50 of standard peptide / IC50 of test peptide)
4,"LLEDDDMGDL (Synthetic peptide) [HER2/neu peptide, position 1008, 10 amino acids]",0.0001 ratio (IC50 of standard peptide / IC50 of test peptide)
5,"LLLALLPPGA (Synthetic peptide) [HER2/neu peptide, position 11, 10 amino acids]",0.0054 ratio (IC50 of standard peptide / IC50 of test peptide)
6,"KITDFGLARL (Synthetic peptide) [HER2/neu peptide, position 860, 10 amino acids]",0.002 ratio (IC50 of standard peptide / IC50 of test peptide)
7,"LLVVVLGVV (Synthetic peptide) [HER2/neu peptide, position 662, 9 amino acids]",0.0001 ratio (IC50 of standard peptide / IC50 of test peptide)
8,"LLALLPPGA (Synthetic peptide) [HER2/neu peptide, position 12, 9 amino acids]",0.0008 ratio (IC50 of standard peptide / IC50 of test peptide)
9,"LLALLPPGAA (Synthetic peptide) [HER2/neu peptide, position 12, 10 amino acids]",0.0006 ratio (IC50 of standard peptide / IC50 of test peptide)
10,"LLNWCMQIA (Synthetic peptide) [HER2/neu peptide, position 822, 9 amino acids]",0.0046 ratio (IC50 of standard peptide / IC50 of test peptide)
11,"LAALCRWGLL (Synthetic peptide) [HER2/neu peptide, position 3, 10 amino acids]",0.0022 ratio (IC50 of standard peptide / IC50 of test peptide)
12,"KIPVAIKVL (Synthetic peptide) [HER2/neu peptide, position 747, 9 amino acids]",0.0002 ratio (IC50 of standard peptide / IC50 of test peptide)
13,"LLPPGAAST (Synthetic peptide) [HER2/neu peptide, position 15, 9 amino acids]",0.0007 ratio (IC50 of standard peptide / IC50 of test peptide)
14,"LAVLDNGDPL (Synthetic peptide) [HER2/neu peptide, position 114, 10 amino acids]",0.0002 ratio (IC50 of standard peptide / IC50 of test peptide)
15,B2,0.0002 ratio (IC50 of standard peptide / IC50 of test peptide)
16,"KIRKYTMRRL (Synthetic peptide) [HER2/neu peptide, position 681, 10 amino acids]",0.0001 ratio (IC50 of standard peptide / IC50 of test peptide)
17,"LLGICLTSTV (Synthetic peptide) [HER2/neu peptide, position 785, 10 amino acids]",0.049 ratio (IC50 of standard peptide / IC50 of test peptide)

# Target: T2, HLA-A*0101 (human)
# T2 construct: also called HLA-A1
# Test: competition with 125I-labelled probe peptide for purified HLA-A*0101, gel filtration
row,Binder,relative binding ratio
1,ASCVTACPY (also called Her2/neu.293),0.055 ratio (IC50 of standard peptide / IC50 of test peptide)
2,"PLTCSPQPEY [HER2/neu peptide, position 1130, 10 amino acids]",0.0072 ratio (IC50 of standard peptide / IC50 of test peptide)
3,"FSPAFDNLY [HER2/neu peptide, position 1213, 9 amino acids, listing 1 of 2 here]",0.043 ratio (IC50 of standard peptide / IC50 of test peptide)
4,"TLEEITGYLY (also called Her2/neu.402) [HER2/neu peptide, position 402, 10 amino acids]",1.1 ratio (IC50 of standard peptide / IC50 of test peptide)
5,"LIQRNPQLCY [HER2/neu peptide, position 154, 10 amino acids, listing 1 of 2 here]",0.03 ratio (IC50 of standard peptide / IC50 of test peptide)
6,"VVQGNLELTY [HER2/neu peptide, position 55, 10 amino acids]",0.018 ratio (IC50 of standard peptide / IC50 of test peptide)
7,"SMPNPEGRY [HER2/neu peptide, position 281, 9 amino acids, listing 1 of 2 here]",0.0028 ratio (IC50 of standard peptide / IC50 of test peptide)
8,"YVMAGVGSPY [HER2/neu peptide, position 772, 10 amino acids]",1.1 ratio (IC50 of standard peptide / IC50 of test peptide)
9,"CVTACPYNY [HER2/neu peptide, position 295, 9 amino acids, listing 1 of 2 here]",0.0042 ratio (IC50 of standard peptide / IC50 of test peptide)
10,"LMTFGAKPY [HER2/neu peptide, position 915, 9 amino acids, listing 1 of 2 here]",0.0011 ratio (IC50 of standard peptide / IC50 of test peptide)
11,"RVLQGLPREY [HER2/neu peptide, position 545, 10 amino acids]",0.0015 ratio (IC50 of standard peptide / IC50 of test peptide)
12,"PLPSETDGY [HER2/neu peptide, position 1119, 9 amino acids, listing 1 of 2 here]",0.0017 ratio (IC50 of standard peptide / IC50 of test peptide)
13,"GSGAFGTVY [HER2/neu peptide, position 727, 9 amino acids, listing 1 of 2 here]",0.0011 ratio (IC50 of standard peptide / IC50 of test peptide)
14,"ELHCPALVTY [HER2/neu peptide, position 265, 10 amino acids, listing 1 of 2 here]",0.0015 ratio (IC50 of standard peptide / IC50 of test peptide)
15,"RLLDIDETEY [HER2/neu peptide, position 868, 10 amino acids]",1.3 ratio (IC50 of standard peptide / IC50 of test peptide)
16,"ASPLDSTFY [HER2/neu peptide, position 997, 9 amino acids, listing 1 of 2 here]",0.029 ratio (IC50 of standard peptide / IC50 of test peptide)
17,"ELMTFGAKPY [HER2/neu peptide, position 914, 10 amino acids]",0.0082 ratio (IC50 of standard peptide / IC50 of test peptide)

# Target: T3, HLA-A*0101 (human)
# T3 construct: also called HLA-A1
# Test: competition with 125I-labelled probe peptide for purified HLA-A*0101, gel filtration; ratio = IC50 of standard peptide 944.02 / IC50 of test peptide
row,Binder,relative binding ratio
1,"LIQRNPQLCY [HER2/neu peptide, position 154, 10 amino acids, listing 2 of 2 here]",0.03 ratio
2,B3,0.1 ratio
3,"PTAENPEY [HER2/neu peptide, position 1241, 8 amino acids]",0.003 ratio
4,"ETLEEITGY [HER2/neu peptide, position 401, 9 amino acids]",0.043 ratio
5,"PLPSETDGY [HER2/neu peptide, position 1119, 9 amino acids, listing 2 of 2 here]",0.0017 ratio
6,"ASPLDSTFY [HER2/neu peptide, position 997, 9 amino acids, listing 2 of 2 here]",0.029 ratio
7,"GSGAFGTVY [HER2/neu peptide, position 727, 9 amino acids, listing 2 of 2 here]",0.0011 ratio
8,"MTFGAKPY [HER2/neu peptide, position 916, 8 amino acids]",-0.0021 ratio
9,"FSPAFDNLY [HER2/neu peptide, position 1213, 9 amino acids, listing 2 of 2 here]",0.043 ratio
10,"QIAKGMSY [HER2/neu peptide, position 828, 8 amino acids]",-0.0021 ratio
11,"SMPNPEGRY [HER2/neu peptide, position 281, 9 amino acids, listing 2 of 2 here]",0.0028 ratio
12,"LMTFGAKPY [HER2/neu peptide, position 915, 9 amino acids, listing 2 of 2 here]",0.0011 ratio
13,"CVTACPYNY [HER2/neu peptide, position 295, 9 amino acids, listing 2 of 2 here]",0.0042 ratio
14,"ELHCPALVTY [HER2/neu peptide, position 265, 10 amino acids, listing 2 of 2 here]",0.0015 ratio
15,B4,0.055 ratio
16,"TLEEITGY [HER2/neu peptide, position 402, 8 amino acids]",-0.0021 ratio
17,"VLQGLPREY [HER2/neu peptide, position 546, 9 amino acids]",0.005 ratio

# Target: T4, HLA-A*0301 (human)
# T4 construct: Purified HLA molecule, 5 to 500 nM in the assay; also called HLA-A3
# Test: competition with 125I-labelled probe peptide on purified HLA-A*0301, gel filtration; ratio to standard peptide 941.12
row,Binder,relative binding ratio (IC50 of standard peptide / IC50 of test peptide)
1,"TVPWDQLFR [HER2/neu peptide, position 479, 9 amino acids]",0.0006 relative binding ratio

# Target: T5, HLA-A*0201 (purified HLA class I molecule) (human)
# T5 construct: also called HLA-A2.1
# Test: competition with 125I-labelled standard peptide for purified HLA, gel filtration
row,Binder,relative binding ratio (IC50 of standard peptide / IC50 of test peptide)
1,B5,0.0001 ratio
2,B6,0.0001 ratio
3,B7,0.0001 ratio
4,B8,0.0001 ratio
5,"RACHPCSPM (Synthetic peptide) [HER2/neu peptide, position 190, 9 amino acids]",0.0001 ratio
6,"QVPLQRLRIV (Synthetic peptide) [HER2/neu peptide, position 93, 10 amino acids]",0.0001 ratio
